Laboratory results reported in patent US20220305003A1, “METHODS OF TREATING CANCER WITH AN INHIBITOR OF ZNF827” (CHILDREN'S MEDICAL RESEARCH INSTITUTE, priority 2019, published 2022).

T1: ZNF827 ZnF1-3 deleted (Homo sapiens, UniProt Q17R98 SEQ:4-997)
T1 chain: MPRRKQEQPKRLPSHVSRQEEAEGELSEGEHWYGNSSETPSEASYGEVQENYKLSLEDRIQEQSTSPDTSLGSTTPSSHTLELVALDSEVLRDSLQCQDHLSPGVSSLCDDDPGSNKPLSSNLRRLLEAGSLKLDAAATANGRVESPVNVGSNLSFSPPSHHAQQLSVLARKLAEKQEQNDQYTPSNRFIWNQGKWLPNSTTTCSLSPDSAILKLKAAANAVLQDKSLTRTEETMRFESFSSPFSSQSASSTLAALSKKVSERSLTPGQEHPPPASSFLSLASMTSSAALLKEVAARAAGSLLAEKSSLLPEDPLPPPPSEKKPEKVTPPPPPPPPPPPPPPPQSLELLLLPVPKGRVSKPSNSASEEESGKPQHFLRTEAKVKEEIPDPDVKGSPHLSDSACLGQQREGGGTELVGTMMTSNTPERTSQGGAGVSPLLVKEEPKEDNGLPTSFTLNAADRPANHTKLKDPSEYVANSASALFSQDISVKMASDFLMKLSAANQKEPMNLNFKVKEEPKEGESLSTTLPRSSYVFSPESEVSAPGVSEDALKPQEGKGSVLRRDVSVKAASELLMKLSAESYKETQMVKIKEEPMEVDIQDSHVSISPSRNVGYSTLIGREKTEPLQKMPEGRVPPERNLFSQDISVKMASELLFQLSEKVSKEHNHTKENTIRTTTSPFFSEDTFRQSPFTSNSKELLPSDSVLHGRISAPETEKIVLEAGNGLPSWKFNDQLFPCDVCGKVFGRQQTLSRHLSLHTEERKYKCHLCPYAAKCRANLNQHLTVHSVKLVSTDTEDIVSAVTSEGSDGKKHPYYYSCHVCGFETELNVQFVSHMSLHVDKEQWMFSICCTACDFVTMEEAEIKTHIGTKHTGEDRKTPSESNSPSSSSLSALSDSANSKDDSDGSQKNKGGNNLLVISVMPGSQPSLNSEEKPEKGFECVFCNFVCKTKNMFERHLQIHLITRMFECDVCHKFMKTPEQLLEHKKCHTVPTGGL

T2: ZNF827 ZnF4-9 deleted (Homo sapiens)
T2 chain: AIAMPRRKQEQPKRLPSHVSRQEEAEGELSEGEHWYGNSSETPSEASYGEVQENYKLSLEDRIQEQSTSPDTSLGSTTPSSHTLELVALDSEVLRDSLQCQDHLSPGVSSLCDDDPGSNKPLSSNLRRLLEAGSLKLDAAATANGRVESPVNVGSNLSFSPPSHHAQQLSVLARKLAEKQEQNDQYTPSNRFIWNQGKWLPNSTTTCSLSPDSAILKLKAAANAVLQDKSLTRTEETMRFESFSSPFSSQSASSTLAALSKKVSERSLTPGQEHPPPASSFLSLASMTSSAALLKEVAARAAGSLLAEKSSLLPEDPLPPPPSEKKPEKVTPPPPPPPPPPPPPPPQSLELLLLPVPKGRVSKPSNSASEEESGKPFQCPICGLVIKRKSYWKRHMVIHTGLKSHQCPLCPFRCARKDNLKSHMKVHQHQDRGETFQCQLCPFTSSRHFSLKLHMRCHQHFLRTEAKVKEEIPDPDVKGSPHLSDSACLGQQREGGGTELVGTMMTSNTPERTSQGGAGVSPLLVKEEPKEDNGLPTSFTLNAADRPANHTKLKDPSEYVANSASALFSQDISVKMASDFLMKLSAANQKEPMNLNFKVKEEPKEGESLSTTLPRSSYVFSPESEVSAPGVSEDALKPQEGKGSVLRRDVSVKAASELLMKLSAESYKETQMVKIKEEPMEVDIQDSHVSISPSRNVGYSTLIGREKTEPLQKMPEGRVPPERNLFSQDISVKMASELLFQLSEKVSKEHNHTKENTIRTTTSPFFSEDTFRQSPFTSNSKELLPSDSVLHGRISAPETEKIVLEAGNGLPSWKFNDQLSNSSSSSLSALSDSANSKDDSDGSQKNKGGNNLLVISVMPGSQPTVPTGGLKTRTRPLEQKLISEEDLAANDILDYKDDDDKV

T3: ZNF827 full length (Homo sapiens, UniProt Q17R98 SEQ:1-1081)
T3 sequence: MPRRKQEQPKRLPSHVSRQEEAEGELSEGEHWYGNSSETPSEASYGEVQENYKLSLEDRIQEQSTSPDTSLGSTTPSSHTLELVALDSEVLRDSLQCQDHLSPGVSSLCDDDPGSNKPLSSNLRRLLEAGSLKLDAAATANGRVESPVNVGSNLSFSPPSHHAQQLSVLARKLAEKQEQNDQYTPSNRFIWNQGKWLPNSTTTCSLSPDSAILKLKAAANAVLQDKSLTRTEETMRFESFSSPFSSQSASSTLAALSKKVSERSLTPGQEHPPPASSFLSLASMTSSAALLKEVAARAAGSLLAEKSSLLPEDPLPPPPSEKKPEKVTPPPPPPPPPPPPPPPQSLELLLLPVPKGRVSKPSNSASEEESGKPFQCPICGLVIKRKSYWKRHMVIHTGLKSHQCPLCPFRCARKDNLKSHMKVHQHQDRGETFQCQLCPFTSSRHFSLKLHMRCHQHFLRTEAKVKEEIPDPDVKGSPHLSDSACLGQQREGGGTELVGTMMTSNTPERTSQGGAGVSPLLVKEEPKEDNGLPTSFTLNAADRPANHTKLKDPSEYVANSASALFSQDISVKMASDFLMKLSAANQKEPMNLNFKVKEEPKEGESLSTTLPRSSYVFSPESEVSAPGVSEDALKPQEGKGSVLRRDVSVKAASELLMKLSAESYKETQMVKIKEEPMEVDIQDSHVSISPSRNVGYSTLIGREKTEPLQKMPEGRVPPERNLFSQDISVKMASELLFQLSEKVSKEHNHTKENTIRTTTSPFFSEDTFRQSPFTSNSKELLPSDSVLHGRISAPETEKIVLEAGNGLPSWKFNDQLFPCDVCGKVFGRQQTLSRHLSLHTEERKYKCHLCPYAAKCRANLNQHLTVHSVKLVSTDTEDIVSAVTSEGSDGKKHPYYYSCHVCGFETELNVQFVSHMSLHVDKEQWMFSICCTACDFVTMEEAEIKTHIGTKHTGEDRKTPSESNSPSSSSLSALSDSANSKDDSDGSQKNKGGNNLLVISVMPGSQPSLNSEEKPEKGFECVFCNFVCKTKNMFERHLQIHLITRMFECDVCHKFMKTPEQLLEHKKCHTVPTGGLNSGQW

B1: ss pentaprobe 3 (ssDNA)
DNA: CGCTCTATTCTACTGTCCTGTGCATTCAATCGTTGAGTTCGATCTAGTCTCGTCTAACCCTCCCCTGCTCCGCTGGTCTGGCCTCGCCTATCCTACCCAT
B2: ss pentaprobe 9 (ssDNA)
DNA: ATGGGTAGGATAGGCGAGGCCAGACCAGCGGAGCAGGGGAGGGTTAGACGAGACTAGATCGAACTCAACGATTGAATGCACAGGACAGTAGAATAGAGCG
B3: ZNF827 full length (human zinc finger protein ZNF827) (other)
chain: T3 sequence
notes: Co-IPs used lysates of human cells (U-2 OS, HT1080) from overexpression experiments; also called Myc-DDK-tagged ZNF827 full length; pCMV6 Myc-DDK-tagged ZNF827 (RC221405); not shown: Myc-DDK tag of the pCMV6 vector

Columns and labels:
ZNF827 ZnF1-3 deleted = biological target: T1, ZNF827 ZnF1-3 deleted; assay: EMSA; binding abrogated; details: tags: HaloTag (pHTN), expressed in HEK 293T, tag removed by HaloTEV cleavage; label: 32P (gamma)
Description: (§1) Purified proteins were quantified using a BCA assay using the Pierce™ BCA Protein Assay Kit according to the manufacturer's instructions. Equal amounts of purified proteins were incubated in binding buffer (20 mM HEPES-KOH, pH7.9, 100 mM KCl, 0.8 mM ZnCl₂, 0.2 mM EDTA, 5% glycerol, 0.5 mM DTT and 0.5 mM PMSF) with 6.25 μg/mL poly (dI:dC) and 50 ng/μL BSA on ice for 20 minutes. ˜0.12 nM (˜2.5 fmol) γ-³²P labelled DNA oligonucleotide (see Table 3) probes were added to samples and incubated on ice for another 30 minutes. Binding reactions were loaded onto an 8% native acrylamide/bisacrylamide (19:1, Biorad) gel pre-run at 100V in 0.5× TB buffer (89 mM Tris, 89 mM boric acid) for 20 minutes. Gels were electrophoresed at 150 V for 150 minutes at 4° C., dried at 65° C. for 45 minutes, and then exposed to a Phosphor screen overnight. Gel images were obtained by scanning the screens with a Typhoon FLA9500 Imager (GE Life Sciences).

ZNF827 ZnF4-9 deleted = biological target: T2, ZNF827 ZnF4-9 deleted; assay: EMSA; 0.8 mM ZnCl2, 100 mM KCl, poly(dI:dC), on ice; details: tags: HaloTag (pHTN), expressed in HEK 293T, tag removed by HaloTEV cleavage; label: 32P (gamma)
Description: as §1

ZNF827 full length = biological target: T3, ZNF827 full length; assay: as above; details: tags: HaloTag (pHTN), expressed in HEK 293T, tag removed by HaloTEV cleavage; label: 32P (gamma)
Description: as §1

[1] = biological target: T4, topoisomerase 2-binding protein 1 (TOPBP1) (human, UniProt Q92547 1-1522); assay: co-IP with Myc antibody, Western blot
T4 construct: TOPBP1 in lysates of human cells, co-immunoprecipitated with Myc antibody
Description: Resuspended cells were lysed by incubation with rotation for 1 hour at 4° C. For Benzonase treatment to remove DNA, samples were incubated in the lysis buffer described above supplemented with 25 U Benzonase nuclease (Novagen, Merck Millipore) for 2 hours at 4° C. Lysates were subjected to centrifugation at 13,000 rpm for 40 minutes at 4° C. to remove cell debris. The supernatant was then transferred to a fresh cold low bind 1.5 mL tube for subsequent immunoprecipitation. For immunoprecipitation, protein lysates were incubated with antibody for the protein of interest (10 μg per mL lysate) or IgG control (Refer to Tables 4 and 5 for the list of antibodies used in this study), preincubated with Dynabeads Protein G, as per manufacturer's instructions (Life Technologies), with rotation overnight at 4° C. The following day, beads were washed three times in cold lysis buffer and separated on a magnetic rack. Proteins were then eluted from the beads by resuspension in 50 mM Glycine pH 2.8 and sodium dodecyl sulphate (SDS) sample buffer (0.2 M Tris-Cl, pH 6.8, 28% glycerol, 13.5% β-mercaptoethanol, 6% SDS, 6 mM EGTA, and 0.07% bromophenol blue) for 10 minutes at 70° C. and subjected to Western blot analysis, as described below, to detect various protein interactions. […]

T4 sequence (Q92547 whole entry): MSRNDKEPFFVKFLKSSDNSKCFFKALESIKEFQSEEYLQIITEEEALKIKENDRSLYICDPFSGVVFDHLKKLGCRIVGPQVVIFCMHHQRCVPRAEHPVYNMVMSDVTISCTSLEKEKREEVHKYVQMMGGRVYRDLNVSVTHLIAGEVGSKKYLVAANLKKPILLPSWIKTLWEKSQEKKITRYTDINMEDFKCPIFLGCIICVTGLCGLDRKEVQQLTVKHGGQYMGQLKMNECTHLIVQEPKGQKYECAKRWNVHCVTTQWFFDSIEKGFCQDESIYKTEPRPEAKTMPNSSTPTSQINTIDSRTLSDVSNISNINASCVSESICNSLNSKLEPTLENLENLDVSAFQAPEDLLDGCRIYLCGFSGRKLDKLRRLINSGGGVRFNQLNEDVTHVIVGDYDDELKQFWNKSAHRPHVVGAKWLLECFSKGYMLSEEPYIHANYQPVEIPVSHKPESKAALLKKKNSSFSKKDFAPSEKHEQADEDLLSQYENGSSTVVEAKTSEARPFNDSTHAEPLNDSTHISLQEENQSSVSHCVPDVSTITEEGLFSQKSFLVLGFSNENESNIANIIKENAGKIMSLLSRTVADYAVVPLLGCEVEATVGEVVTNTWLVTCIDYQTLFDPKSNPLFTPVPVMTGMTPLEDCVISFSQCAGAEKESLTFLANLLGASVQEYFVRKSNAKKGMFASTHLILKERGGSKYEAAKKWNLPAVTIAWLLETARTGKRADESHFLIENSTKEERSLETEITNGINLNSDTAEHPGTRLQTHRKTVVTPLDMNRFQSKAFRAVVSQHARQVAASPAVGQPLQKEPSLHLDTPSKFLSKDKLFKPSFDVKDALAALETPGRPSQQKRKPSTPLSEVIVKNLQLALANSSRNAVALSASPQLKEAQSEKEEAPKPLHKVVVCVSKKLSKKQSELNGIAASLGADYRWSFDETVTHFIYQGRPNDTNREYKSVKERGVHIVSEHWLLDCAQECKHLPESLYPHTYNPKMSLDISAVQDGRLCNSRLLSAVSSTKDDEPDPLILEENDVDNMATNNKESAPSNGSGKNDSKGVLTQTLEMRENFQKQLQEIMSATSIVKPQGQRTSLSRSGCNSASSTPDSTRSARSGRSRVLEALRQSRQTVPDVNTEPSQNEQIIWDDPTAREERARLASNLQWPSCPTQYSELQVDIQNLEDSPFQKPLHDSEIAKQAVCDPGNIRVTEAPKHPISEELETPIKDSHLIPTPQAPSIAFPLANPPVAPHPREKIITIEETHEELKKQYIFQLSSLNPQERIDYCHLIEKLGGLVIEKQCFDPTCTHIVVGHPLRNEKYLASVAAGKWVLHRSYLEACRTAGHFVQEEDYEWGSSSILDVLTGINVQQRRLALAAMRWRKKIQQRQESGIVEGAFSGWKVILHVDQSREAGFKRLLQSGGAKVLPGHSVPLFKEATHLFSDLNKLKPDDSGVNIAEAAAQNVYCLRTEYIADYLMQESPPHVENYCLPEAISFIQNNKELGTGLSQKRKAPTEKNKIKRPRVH

Binder	binding result (ZNF827 ZnF1-3 deleted)	binding result (ZNF827 ZnF4-9 deleted)	binding result (ZNF827 full length)	binding result [1]
B1	no binding	binds	binds	
B2	no binding	binds	binds	
B3				binds
